In IntAct's records for PubMed 20972459:

B1: WW domain-binding protein 2 (Homo sapiens), Q969T9 (parent)
chain: MALNKNHSEGGGVIVNNTESILMSYDHVELTFNDMKNVPEAFKGTKKGTVYLTPYRVIFLSKGKDAMQSFMMPFYLMKDCEIKQPVFGANYIKGTVKAEAGGGWEGSASYKLTFTAGGAIEFGQRMLQVASQASRGEVPSGAYGYSYMPSGAYVYPPPVANGMYPCPPGYPYPPPPPEFYPGPPMMDGAMGYVQPPPPPYPGPMEPPVSGPDVPSTPAAEAKAAEAAASAYYNPGNPHNVYMPTSQPPPPPYYPPEDKKTQ

Variants of: B1
Conditions: with wwtr1_human WWTR1, Q9GZV5
wwtr1_human WWTR1, Q9GZV5, sequence (Q9GZV5 whole entry): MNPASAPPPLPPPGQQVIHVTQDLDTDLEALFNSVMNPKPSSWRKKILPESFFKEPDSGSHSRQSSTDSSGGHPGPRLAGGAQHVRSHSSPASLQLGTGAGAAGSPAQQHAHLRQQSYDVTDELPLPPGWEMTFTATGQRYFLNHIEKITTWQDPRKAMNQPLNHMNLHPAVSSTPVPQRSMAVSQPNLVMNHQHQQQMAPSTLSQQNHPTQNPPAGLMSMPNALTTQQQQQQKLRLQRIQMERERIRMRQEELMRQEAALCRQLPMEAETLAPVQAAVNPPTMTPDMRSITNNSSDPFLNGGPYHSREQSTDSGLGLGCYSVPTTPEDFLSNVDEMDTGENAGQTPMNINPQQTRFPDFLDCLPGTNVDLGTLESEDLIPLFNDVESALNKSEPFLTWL

**Q.** How did the “effect of a mutation on the interaction” value turn out when MALNKNHSEGGGVIVNNTESILMSYDHVELTFNDMKNVPEAFKGTKKGTVYLTPYRVIFLSKGKDAMQSFMMPFYLMKDCEIKQPVFGANYIKGTVKAEAGGGWEGSASYKLTFTAGGAIEFGQRMLQVASQASRGEVPSGAYGYSYMPSGAYVYPPPVANGMYPCPPGYPYPPPPPEFYPGPPMMDGAMGYVQPPPPPAPGPMEPPVSGPDVPSTPAAEAKAAEAAASAYYNPGNPHNVYMPTSQPPPPPYYPPEDKKTQ [Y200A] was run?
**A.** disrupting interaction
